doi:10.1101/2025.05.23.655777v1

System: NCCCC(=O)O
Test: purified protein
Conditions: fixed pyruvate (6 mM), TAPS pH 9.0, 50 µM PLP, 30 °C

## GABA-AT; GABA aminotransferase 1 (recombinant) (Arabidopsis thaliana)
  Km: 590 ± 200 µM
  kcat: 4.97 s⁻¹
